Target: pxEBN4-ACE2-AAA-His (human) (UniProt Q9BYF1)
Also: test concentration or dose not given here.

Substance	Response, shift in Wavelength (nm)
pxENB17-RBD-His (from UniProt P0DTC2 319-541) (ligand)	0.301 nm
pxENB9-FLS-CT-His (from UniProt P0DTC2 15-1213) (ligand)	0.555 nm
pxEBNCP15-mIgGHC-FLS-CT-His (from UniProt P0DTC2 16-1213) (ligand)	0.492 nm
pxENBEP18_Spike_Nuc(1-182)_10xHis (ligand)	0.277 nm
pxENB14-His-TEV-RBD (from UniProt P0DTC2 319-541) (ligand)	0.304 nm
pxENB8-FLS-TN-His (from UniProt P0DTC2 15-1213) (ligand)	0.0591 nm
pxENB12-FLS-His (from UniProt P0DTC2 15-1213) (ligand)	0.127 nm
pxEBNCP16-IL2-FLS-CT-His (from UniProt P0DTC2 16-1213) (ligand)	0.145 nm
pxENBEP17_TPA_Nuc(1-182)_Spike (15-1216, GAAS, PP)_10xHis (ligand)	0.232 nm
pxEBNCP14-tPa-FLS-CT-His (from UniProt P0DTC2 16-1213) (ligand)	0.529 nm
pxENB2-His-TEV-FLS-CT (from UniProt P0DTC2 14-1213) (ligand)	0.344 nm
pxENB5-his-TEV-FLS (from UniProt P0DTC2 14-1213) (ligand)	0.185 nm
pxENB1-His-TEV-FLS-TN (from UniProt P0DTC2 14-1213) (ligand)	0.0257 nm

Target: pxEBN4-ACE2-AAA-His (human) (UniProt Q9BYF1)
Remark: another data set of the same source

Substance	Response, shift in Wavelength (nm)
pxENBCP19-FLS-CT-His-StrepTagII (from UniProt P0DTC2 15-1213) (ligand)	0.042 nm
pxENBCP17-FLS-CT-His-SBP (from UniProt P0DTC2 15-1213) (ligand)	0.0382 nm
pxENBCP20-FLS-CT-His-TST (from UniProt P0DTC2 15-1213) (ligand)	0.0719 nm

From patent publication US20240400618A1
